Assays:
[1] = biological target: HuD N-terminal fragment (1-117) in which the 8 N and D residues in the 36-amino acid flexible region were mutated to Q and E (UniProt P26378)
[2] = biological target: HuD RRM1 lacking the N-terminal 36 amino acids (37-117 aa) (UniProt P26378)
[3] = biological target: in vitro isoaspartyl-converted recombinant HuD N-terminal fragment (amino acids 1-117, wildtype) (UniProt P26378)
[4] = biological target: native recombinant HuD N-terminal fragment (amino acids 1-117, wildtype, day 0, not converted) (UniProt P26378)
Sequence of native recombinant HuD N-terminal fragment (amino acids 1-117, wildtype, day 0, not converted) (P26378 other isoform, or with tags, fused parts or gaps): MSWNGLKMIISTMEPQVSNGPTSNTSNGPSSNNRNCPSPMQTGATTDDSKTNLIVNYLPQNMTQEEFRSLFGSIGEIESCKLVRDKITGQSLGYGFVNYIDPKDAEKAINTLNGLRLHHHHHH

[5] = system: synapsin (isoaspartyl-converted, positive control)

Sequence of in vitro isoaspartyl-converted recombinant HuD N-terminal fragment (amino acids 1-117, wildtype) (P26378 whole entry, looked up, the tested form may be a part): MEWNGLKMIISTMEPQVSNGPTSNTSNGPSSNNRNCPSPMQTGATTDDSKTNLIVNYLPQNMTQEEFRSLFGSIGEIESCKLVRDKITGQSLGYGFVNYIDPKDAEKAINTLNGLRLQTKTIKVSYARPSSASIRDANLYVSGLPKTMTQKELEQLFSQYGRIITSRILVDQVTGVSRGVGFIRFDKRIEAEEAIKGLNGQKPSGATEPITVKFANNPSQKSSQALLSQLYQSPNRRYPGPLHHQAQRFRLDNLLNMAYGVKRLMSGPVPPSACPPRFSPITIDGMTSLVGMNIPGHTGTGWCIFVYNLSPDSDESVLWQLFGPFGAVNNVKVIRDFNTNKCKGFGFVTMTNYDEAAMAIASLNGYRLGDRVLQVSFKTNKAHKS
Sequence of HuD N-terminal fragment (1-117) in which the 8 N and D residues in the 36-amino acid flexible region were mutated to Q and E (P26378 other isoform, or with tags, fused parts or gaps, change not shown): as the sequence (P26378 other isoform, or with tags, fused parts or gaps) above
Sequence of HuD RRM1 lacking the N-terminal 36 amino acids (37-117 aa) (P26378 37-117): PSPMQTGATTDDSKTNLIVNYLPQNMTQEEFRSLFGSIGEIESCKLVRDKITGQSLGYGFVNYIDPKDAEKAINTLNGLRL

## recombinant rat protein-L-isoaspartyl methyltransferase (PIMT)
[1]
  on-blot methylation with [3H]-AdoMet by PIMT: Only the Day 3 and Day 7 samples from the original 117 amino acid fragment show above background labeling
[2]
  on-blot methylation with [3H]-AdoMet by PIMT: the RRM1 domain alone shows no signal above background when incubated under isoaspartylation conditions and then subjected to PIMT modification
[3]
  PIMT-catalyzed [3H]-methyl incorporation from [3H]-AdoMet (autoradiography): followed by a strong increase in PIMT-mediated methylation over the seven day incubation
[4]
  PIMT-catalyzed [3H]-methyl incorporation from [3H]-AdoMet (autoradiography): HuD exhibited no reactivity at Day 0
[5]
  PIMT-catalyzed [3H]-methyl incorporation from [3H]-AdoMet (autoradiography): Isoaspartyl-converted synapsin and HuD were visualized by methylation with [3H]-AdoMet by PIMT

Source: patent US20150232539
